Assay [1] addresses antibody captured by the human Fab capture kit. Kind of assay: SPR (BIAcore), antibody captured via human Fab capture kit, 50 nM receptor injected as analyte.
Assay [2] has the same target. Kind of assay: SPR (BIAcore), antibody captured via human Fab capture kit, 50 nM receptor fusion injected as analyte.
Assay [3] concerns the target -. Kind of assay: SPR; monomeric, middle panel.
In assay [4] the target is -. Kind of assay: SPR; monomeric, top panel.

Experimental findings from US20150218250A1 are described below.

With “FcgammaRIIIaV158 (HisAvi-tag comprising functional variant) (receptor)”, in assay [1], the response units came out at 40 RU.

The substance “FcgammaRIIIaV158-Avi-IgA Protease-Fc LALA P329G fusion polypeptide (Fc fusion)” displayed a response units in assay [2] of more than 100 RU.

The substance “monomeric IL18R-Fc fusion polypeptide (middle)” had a Kd in assay [3] of 0.801 nM.

Take “monomeric IL18R-Fc fusion polypeptide (top)”: in assay [4], the Kd came to 0.921 nM.
